The record followed here is patent US20220389118A1 (Chugai, published 2022).

Assay [1] has as its target T1, human IgE (human).
T1 construct: Recombinant human IgE used as the antigen; its variable region is from an anti-human glypican 3 antibody; held on the chip by a biotinylated GPC3 peptide; also called hIgE
The assay can be described thus: SPR (Biacore T200), human IgE held on SA chip by biotinylated GPC3 peptide, antibody as analyte, 37 C; pH5.8, 3 µM Ca; pH 5.8. As for the experimental part: (§1) Measurements were carried out using the following three types of running buffers:
(§2) An appropriate concentration of human IgE was injected and captured by the biotinylated GPC3 peptide to immobilize human IgE on the chip. […] Then, 10 mmol/L glycine-HCl (pH 1.5) was injected to regenerate the sensor chip. All of the assay for the interaction was performed at 37° C. Using Biacore T200 Evaluation Software (GE Healthcare), the assay results were analyzed by curve fitting to determine the binding rate constant ka (1/Ms) and dissociation rate constant kd (1/s). Dissociation constant KD (M) was calculated from the above constants.
Background: In SPR one partner is held on a chip, and binding of the other changes the refractive index at the surface.

Assay [2] has as its target T1, human IgE. The assay can be described thus: SPR (Biacore T200), human IgE held on SA chip by biotinylated GPC3 peptide, antibody as analyte, 37 C; pH5.8, 1.2 mM Ca; pH 5.8. As for the experimental part: as §1, §2
Assay [3] concerns the target T1, human IgE. The assay can be described thus: SPR (Biacore T200), human IgE held on SA chip by biotinylated GPC3 peptide, antibody as analyte, 37 C; pH7.4, 1.2 mM Ca; pH 7.4. As for the experimental part:
as §1, §2

Assay [4] has as its target T1, human IgE. The assay can be described thus: SPR (Biacore T200), human IgE held on SA chip by biotinylated GPC3 peptide, antibody as analyte, 37 C; pH7.4, 1.2 mM Ca; pH7.4, 1.2 mM Ca; 37 C; pH 7.4. The protocol: as §1, §2
Assay [5] addresses T2, human FcγRIa extracellular domain with C-terminal His tag (human, UniProt P12314 16-292).
T2 construct: extracellular domain; also called FcgRIa
The assay can be described thus: SPR (Biacore), binding amount.
T2 sequence (P12314 16-292): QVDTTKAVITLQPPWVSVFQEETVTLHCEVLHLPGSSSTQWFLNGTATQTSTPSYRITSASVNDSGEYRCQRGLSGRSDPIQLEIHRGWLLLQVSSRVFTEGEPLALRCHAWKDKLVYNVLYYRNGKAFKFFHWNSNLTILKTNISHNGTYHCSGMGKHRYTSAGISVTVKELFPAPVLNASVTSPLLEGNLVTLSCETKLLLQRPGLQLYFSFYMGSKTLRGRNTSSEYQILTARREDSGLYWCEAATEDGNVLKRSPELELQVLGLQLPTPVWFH

Assay [6] deals with T3, human FcγRIIa type R extracellular domain with C-terminal His tag (human, UniProt P12318 34-217).
T3 construct: extracellular domain; also called FcγRIIaR; FcgRIIaR
T3 sequence (looked up): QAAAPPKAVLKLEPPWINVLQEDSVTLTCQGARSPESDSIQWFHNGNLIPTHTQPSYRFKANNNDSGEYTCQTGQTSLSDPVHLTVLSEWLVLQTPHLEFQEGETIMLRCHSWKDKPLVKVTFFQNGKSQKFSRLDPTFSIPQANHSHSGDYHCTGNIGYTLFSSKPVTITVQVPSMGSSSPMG
Nature of the assay: SPR (Biacore), binding amount.

The target in assay [7] is T4, human FcγRIIa type H extracellular domain with C-terminal His tag (human, UniProt P12318 34-217).
T4 construct: extracellular domain; also called FcγRIIaH; FcgRIIaH
T4 sequence (looked up): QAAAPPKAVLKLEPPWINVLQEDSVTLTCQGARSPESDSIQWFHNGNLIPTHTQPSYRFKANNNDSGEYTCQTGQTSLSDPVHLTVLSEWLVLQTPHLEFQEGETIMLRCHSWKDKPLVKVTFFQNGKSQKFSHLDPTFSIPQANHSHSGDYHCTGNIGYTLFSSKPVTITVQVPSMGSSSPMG
The assay can be described thus: SPR (Biacore), binding amount.

Assay [8] has as its target T5, human FcγRIIb extracellular domain with C-terminal His tag (human, UniProt P31994 43-217).
T5 construct: extracellular domain; also called FcgRIIb
T5 sequence (looked up): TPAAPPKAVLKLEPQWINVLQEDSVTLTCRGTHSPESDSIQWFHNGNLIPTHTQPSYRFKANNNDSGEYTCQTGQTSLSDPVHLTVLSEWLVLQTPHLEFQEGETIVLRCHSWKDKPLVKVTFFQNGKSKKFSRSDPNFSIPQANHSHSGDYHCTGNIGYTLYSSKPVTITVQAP
Nature of the assay: SPR (Biacore), binding amount.

Assay [9] has as its target T6, human FcγRIIIa type V extracellular domain with C-terminal His tag (human, UniProt P08637 17-208).
T6 construct: extracellular domain; also called FcγRIIIaV; FcgRIIIaV
The assay can be described thus: SPR (Biacore), binding amount.
T6 sequence (P08637 17-208 F176V): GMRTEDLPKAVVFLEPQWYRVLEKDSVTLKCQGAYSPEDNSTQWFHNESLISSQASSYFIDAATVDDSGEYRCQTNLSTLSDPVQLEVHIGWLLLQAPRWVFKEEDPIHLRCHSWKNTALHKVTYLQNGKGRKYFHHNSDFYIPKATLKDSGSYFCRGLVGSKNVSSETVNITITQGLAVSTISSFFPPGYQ

Assay [10] has as its target T7, human FcγRIIa type R extracellular domain with C-terminal His tag (human, UniProt P12318 34-217).
T7 construct: extracellular domain; also called FcγRIIaR; FcγRIIa R
T7 sequence (looked up): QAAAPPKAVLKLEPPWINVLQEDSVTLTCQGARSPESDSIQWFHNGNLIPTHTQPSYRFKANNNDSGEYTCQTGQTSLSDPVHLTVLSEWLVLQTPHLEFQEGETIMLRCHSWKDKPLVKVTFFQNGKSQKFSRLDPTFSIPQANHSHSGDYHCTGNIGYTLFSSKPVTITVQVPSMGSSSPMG
Nature of the assay: SPR, amount of binding. An excerpt: (§3) These variants were expressed and purified by the method of Reference Example 2. These Fc variants are called PD variants. Interactions of each PD variant with FcγRIIa type R and FcγRIIb were comprehensively evaluated by the method of Reference Example 25.

Assay [11] addresses T8, human FcγRIIb extracellular domain with C-terminal His tag (human, UniProt P31994 43-217).
T8 construct: extracellular domain; for crystals expressed with kifunensine and trimmed with Endo F1; also called FcγRIIb extracellular region
T8 sequence (looked up): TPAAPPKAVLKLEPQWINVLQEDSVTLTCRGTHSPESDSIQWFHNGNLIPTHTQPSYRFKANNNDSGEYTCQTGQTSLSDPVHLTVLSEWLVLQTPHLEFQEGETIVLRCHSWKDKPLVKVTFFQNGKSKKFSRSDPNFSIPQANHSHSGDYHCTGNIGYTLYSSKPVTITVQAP
The assay can be described thus: SPR, amount of binding.
Excerpt: as §3

Assay [12] has as its target T9, human FcγRIa extracellular domain with C-terminal His tag (human, UniProt P12314 16-292).
T9 construct: extracellular domain
Nature of the assay: SPR (Biacore).
T9 sequence (P12314 16-292): as the sequence (P12314 16-292) above

Assay [13] has as its target T10, human FcγRIIa type R extracellular domain with C-terminal His tag (human, UniProt P12318 34-217).
T10 construct: extracellular domain; also called FcγRIIaR; FcγRIIa(R)
T10 sequence (looked up): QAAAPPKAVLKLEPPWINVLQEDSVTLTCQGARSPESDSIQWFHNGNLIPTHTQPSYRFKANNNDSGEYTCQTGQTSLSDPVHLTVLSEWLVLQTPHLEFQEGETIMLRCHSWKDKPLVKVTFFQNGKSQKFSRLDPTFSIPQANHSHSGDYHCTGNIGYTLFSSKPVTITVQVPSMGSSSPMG
The assay can be described thus: SPR (Biacore).

Assay [14] deals with T11, human FcγRIIb extracellular domain with C-terminal His tag (human, UniProt P31994 43-217).
T11 construct: extracellular domain
T11 sequence (looked up): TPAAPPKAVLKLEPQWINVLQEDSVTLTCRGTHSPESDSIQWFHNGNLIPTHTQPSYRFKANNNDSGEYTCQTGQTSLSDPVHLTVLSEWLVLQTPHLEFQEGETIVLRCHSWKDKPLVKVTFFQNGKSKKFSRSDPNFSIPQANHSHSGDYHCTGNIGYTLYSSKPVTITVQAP
Nature of the assay: SPR (Biacore).

For assay [15], the target named is T12, human FcγRIIIa type V extracellular domain with C-terminal His tag (human, UniProt P08637 17-208).
T12 construct: extracellular domain; also called FcγRIIIaV; FcγRIIIa(V)
The assay can be described thus: SPR (Biacore).
T12 sequence (P08637 17-208 F176V): as the sequence (P08637 17-208 F176V) above

The target of assay [16] is T7, human FcγRIIa type R extracellular …. The assay can be described thus: SPR.
The target of assay [17] is T8, human FcγRIIb extracellular domain with …. Nature of the assay: SPR.

T1 sequence (heavy, as listed by the source, chain 1 of 2, other chains not shown): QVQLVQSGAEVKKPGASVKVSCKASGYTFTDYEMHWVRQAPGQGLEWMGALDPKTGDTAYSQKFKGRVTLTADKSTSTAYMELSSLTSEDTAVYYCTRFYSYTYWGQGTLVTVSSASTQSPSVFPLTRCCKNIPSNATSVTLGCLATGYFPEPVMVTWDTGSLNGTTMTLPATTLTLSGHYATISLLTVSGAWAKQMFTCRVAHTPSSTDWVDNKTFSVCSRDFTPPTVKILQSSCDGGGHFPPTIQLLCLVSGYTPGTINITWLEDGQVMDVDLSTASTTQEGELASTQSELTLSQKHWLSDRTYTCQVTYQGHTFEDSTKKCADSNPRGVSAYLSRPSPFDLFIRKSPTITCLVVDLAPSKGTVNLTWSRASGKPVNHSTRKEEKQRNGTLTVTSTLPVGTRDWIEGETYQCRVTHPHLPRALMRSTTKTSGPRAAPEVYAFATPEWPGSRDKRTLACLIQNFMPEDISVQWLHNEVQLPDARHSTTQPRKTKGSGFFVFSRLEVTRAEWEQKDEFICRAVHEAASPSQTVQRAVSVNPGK

B1: 278-IgG1 (antibody, V domains shown)
VH: QSLEESGGRLVTPGTPLTLTCTASGFSLSSYHMSWVRQAPGKGLEWIGVINSAGNTYYASWAKGRFTVSKTSTTVDLNLTSLTTEDTATYFCARYVFSSGSHDIWGPGTLVTVSS
VL: AYDMTQTPASVEVAVGGTVTIKCQASQSIGSWLAWYQQKPGQPPKELIYGTSTLESGVPSRFIGSGSGTEFTLTISGVECADAATYYCQQGYSEDNIDNAFGGGTEVVVKR
notes: pH-dependent anti-human IgE antibody
The koff is the first-order rate constant of dissociation. What is called kon is a measure of how fast the partners come together. The low end stands for slow association, the high end for fast association. Turning to B1, the off-rate constant (koff) in assay [1] was found to be 0.24 s⁻¹; in assay [2], 0.23 s⁻¹; in assay [3], 0.0036 s⁻¹. The kon in assay [1] was 62000 M⁻¹ s⁻¹; in assay [2], 120000 M⁻¹ s⁻¹; in [4], 1.5e+06 M⁻¹ s⁻¹.

B2: IL6R-BP198/IL6R-L (antibody, human IgG1, kappa)
heavy: QVQLQESGPGLVKPSETLSLTCAVSGHSISHDHAWSWVRQPPGEGLEWIGFISYSGITNYNPSLQGRVTISRDNSKNTLYLQMNSLRAEDTAVYYCARSLARTTAMDYWGEGTLVTVSSASTKGPSVFPLAPSSKSTSGGTAALGCLVKDYFPEPVTVSWNSGALTSGVHTFPAVLQSSGLYSLSSVVTVPSSSLGTQTYICNVNHKPSNTKVDKKVEPKSCDKTHTCPPCPAPDYLGGDSVFLFPPKPKDTLMISRTPEVTCVVVDVSDEDGEVKFNWYVDGVEVHNAKTKPREEQYNSTYRVVSVLTVLHQDWLNGKEYKCKVSNAALPKPIEKTISKAKGQPREPQVYTLPPSRDELTKNQVSLTCLVKGFYPSDIAVEWESNGQPENNYKTTPPVLDSDGSFFLYSKLTVDKSRWQQGNVFSCSVMHEALHNHYTQESLSLSP
light: not shown
notes: EU numbering; alterations on IL6R-B3; copies: 2 + 2
On to B2, for which the relative binding activity in [5] was 104 % of IL6R-BF648/IL6R-L; in [6], 449 % of IL6R-BF648/IL6R-L; in assay [7], 188 % of IL6R-BF648/IL6R-L; in assay [8], 164 % of IL6R-BF648/IL6R-L; in [9], 157 % of IL6R-BF648/IL6R-L.

B3: IL6R-F652/IL6R-L (antibody, human IgG1, kappa)
heavy: QVQLQESGPGLVKPSETLSLTCAVSGHSISHDHAWSWVRQPPGEGLEWIGFISYSGITNYNPSLQGRVTISRDNSKNTLYLQMNSLRAEDTAVYYCARSLARTTAMDYWGEGTLVTVSSASTKGPSVFPLAPSSKSTSGGTAALGCLVKDYFPEPVTVSWNSGALTSGVHTFPAVLQSSGLYSLSSVVTVPSSSLGTQTYICNVNHKPSNTKVDKKVEPKSCDKTHTCPPCPAPELLGGDSVFLFPPKPKDTLYISRTPEVTCVVVDVSHEDPEVKFNWYVDGVEVHNAKTKPREEQYNSTYRVVSVLTVLHQDWLNGKEYKCKVSNKALPAPIEKTISKAKGQPREPQVYTLPPSRDELTKNQVSLTCLVKGFYPSDIAVEWESNGQPENNYKTTPPVLDSDGSFFLYSKLTVDKSRWQQGNVFSCSVMHEALHYHYTQKSLSLSP
light: not shown
notes: IL6R-F11 with P238D (EU numbering); copies: 2 + 2
B3: the “relative binding activity” value in assay [10] and in assay [11] was 100 IL6R-F652/IL6R-L = 100 each time.

B4: IL6R-BP253/IL6R-L (antibody, human IgG1, kappa)
heavy: QVQLQESGPGLVKPSETLSLTCAVSGHSISHDHAWSWVRQPPGEGLEWIGFISYSGITNYNPSLQGRVTISRDNSKNTLYLQMNSLRAEDTAVYYCARSLARTTAMDYWGEGTLVTVSSASTKGPSVFPLAPSSKSTSGGTAALGCLVKDYFPEPVTVSWNSGALTSGVHTFPAVLQSSGLYSLSSVVTVPSSSLGTQTYICNVNHKPSNTKVDKKVEPKSCDKTHTCPPCPAPELLGGPSVFLFPPKPKDTLMISRTPEVTCVVVDVEHEDPEVKFNWYVDGVEVHNAKTKPREEQYNSTYRVVSVLTVLHQDWLNGKEYKCKVSNKAFPAPIEKTISKAKGQPREPQVYTLPPSRDELTKNQVSLTCLVKGFYPSDIAVEWESNGQPENNYKTTPPVLDSDGSFFLYSKLTVDKSRWQQGNVFSCSVMHEALHNHYTQESLSLSP
light: not shown
notes: Comparison control with existing alterations; copies: 2 + 2
The Kd is a measure of binding affinity in units of concentration. Low readings indicate higher affinity, high ones lower affinity. In the case of B4, the Kd in [12] was 0.067 nM; in assay [13], 2.1 nM; in assay [14] it was 11 nM; in [15], 3600 nM.

B5: IL6R-BP478/IL6R-L (antibody)
heavy: QVQLQESGPGLVKPSETLSLTCAVSGHSISHDHAWSWVRQPPGEGLEWIGFISYSGITNYNPSLQGRVTISRDNSKNTLYLQMNSLRAEDTAVYYCARSLARTTAMDYWGEGTLVTVSSASTKGPSVFPLAPCSRSTSESTAALGCLVKDYFPEPVTVSWNSGALTSGVHTFPAVLQSSGLYSLSSVVTVPSSSLGTKTYTCNVDHKPSNTKVDKRVESKYGPPCPPCPAPDLLGDDSVFLFPPKPKDTLMISRTPEVTCVVVDVSDEDGEVKFNWYVDGVEVHNAKTKPREEQDNSTYRVVSVLTVLHQDWLNGKEYKCKVSNKALPRPIEKTISKAKGQPREPQVYTLPPSRDELTKNQVSLTCLVKGFYPSDIAVEWESNGQPENNYKTTPPVLDSDGSFFLYSKLTVDKSRWQQGNVFSCSVMHEALHNHYTQESLSLSP
light: not shown
notes: IL6R-BP230 in which Ala118-Thr225 (EU numbering) is replaced by Ala118-Pro222 of G4d; copies: 2 + 2
In the case of B5, the “fold against IL6R-BP230/IL6R-L” value in [16] and in [17] was 1.1 fold throughout.
